Columns and labels:
A-FosW = target: T1, A-FosW (designed); assay: CD (281 nm DNA peak); 50 uM A-FosW, 5 uM DNA; EMSA: 150 mM KCl, 1 mM DTT, 1 mM EDTA, 10 mM Tris, 10 mM MgCl2, pH 8, 4 C, 30 min; CD: buffer with TCEP, pH 7.4, 30 min (rest not in material); settings: protein: recombinant; tags: N-terminal MAS, C-terminal GAP-His6; blunt
T1 chain: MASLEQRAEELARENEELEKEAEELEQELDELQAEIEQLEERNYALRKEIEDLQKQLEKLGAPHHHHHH

cJun bZIP = cJun bZIP (human, UniProt P05412); assay: CD (281 nm DNA peak); 20 uM cJun, 5 uM DNA; DNA peak decreases by 55%; EMSA: 150 mM KCl, 1 mM DTT, 1 mM EDTA, 10 mM Tris, 10 mM MgCl2, pH 8, 4 C, 30 min; CD: buffer with TCEP, pH 7.4, 30 min (rest not in material); settings: protein: recombinant; tags: C-terminal GAP; His-SUMO cleaved off; chain copies: 2; blunt
Sequence of cJun bZIP (P05412 other isoform, or with tags, fused parts or gaps): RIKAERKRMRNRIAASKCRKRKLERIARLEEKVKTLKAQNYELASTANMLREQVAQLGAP

HingeW = target: T2, HingeW (designed); assay: CD (281 nm DNA peak); EMSA: 150 mM KCl, 1 mM DTT, 1 mM EDTA, 10 mM Tris, 10 mM MgCl2, pH 8, 4 C, 30 min; CD: buffer with TCEP, pH 7.4, 30 min (rest not in material); settings: protein: recombinant; tags: N-terminal MAS, C-terminal GAP-His6; blunt
T2 chain: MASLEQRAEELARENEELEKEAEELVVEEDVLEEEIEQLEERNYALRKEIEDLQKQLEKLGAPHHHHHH

B1: TRE DNA (dsDNA)
DNA 1: GTCAGTCAGTGACTCAATCGGTCA
DNA 2: TGACCGATTGAGTCACTGACTGAC
binding result (A-FosW): no binding | binding result (cJun bZIP): binds | binding result (HingeW): no binding
